Measurements: publication doi:10.1101/2020.02.05.935528

Target: Nitrosopumilus maritimus 4-hydroxybutyryl-CoA dehydratase (Nitrosopumilus maritimus)
Assay: crystal structure

- stoichiometry N: 4
Substance: Nitrosopumilus maritimus 4-hydroxybutyryl-CoA dehydratase (enzyme)
